Numbering of substitutions follows the chain as printed.
B1: STF2.HA1-1His(PR8), produced in E. coli (protein)
chain: MAQVINTNSLSLLTQNNLNKSQSALGTAIERLSSGLRINSAKDDAAGQAIANRFTANIKGLTQASRNANDGISIAQTTEGALNEINNNLQRVRELAVQSANSTNSQSDLDSIQAEITQRLNEIDRVSGQTQFNGVKVLAQDNTLTIQVGANDGETIDIDLKQINSQTLGLDSLNVQKAYDVKDTAVTTKAYANNGTTLDVSGLDDAAIKAATGGTNGTASVTGGAVKFDADNNKYFVTIGGFTGADAAKNGDYEVNVATDGTVTLAAGATKTTMPAGATTKTEVQELKDTPAVVSADAKNALIAGGVDATDANGAELVKMSYTDKNGKTIEGGYALKAGDKYYAADYDEATGAIKAKTTSYTAADGTTKTAANQLGGVDGKTEVVTIDGKTYNASKAAGHDFKAQPELAEAAAKTTENPLQKIDAALAQVDALRSDLGAVQNRFNSAITNLGNTVNNLSEARSRIEDSDYATEVSNMSRAQILQQAGTSVLAQANQVPQNVLSLLASHNGKLCRLKGIAPLQLGKCNIAGWLLGNPECDPLLPVRSWSYIVETPNSENGICYPGDFIDYEELREQLSSVSSFERFEIFPKESSWPNHNTNGVTAACSHEGKSSFYRNLLWLTEKEGSYPKLKNSYVNKKGKEVLVLWGIHHPPNSKEQQNLYQNENAYVSVVTSNYNRRFTPEIAERPKVRDQAGRMNYYWTLLKPGDTIIFEANGNLIAPMYAFALSRGFGSGIITSNASMHECNTKCQTPLGAINSSLPYQNIHPVTIGECPKYVRHHHHHH
B2: STF2.HA1-2His(PR8), produced in Baculovirus (protein)
chain: AQVINTNSLSLLTQNNLNKSQSALGTAIERLSSGLRINSAKDDAAGQAIANRFTANIKGLTQASRNANDGISIAQTTEGALNEINNNLQRVRELAVQSANSTNSQSDLDSIQAEITQRLNEIDRVSGQTQFNGVKVLAQDNTLTIQVGANDGETIDIDLKQINSQTLGLDSLNVQKAYDVKDTAVTTKAYANNGTTLDVSGLDDAAIKAATGGTNGTASVTGGAVKFDADNNKYFVTIGGFTGADAAKNGDYEVNVATDGTVTLAAGATKTTMPAGATTKTEVQELKDTPAVVSADAKNALIAGGVDATDANGAELVKMSYTDKNGKTIEGGYALKAGDKYYAADYDEATGAIKAKTTSYTAADGTTKTAANQLGGVDGKTEVVTIDGKTYNASKAAGHDFKAQPELAEAAAKTTENPLQKIDAALAQVDALRSDLGAVQNRFNSAITNLGNTVNNLSEARSRIEDSDYATEVSNMSRAQILQQAGTSVLAQANQVPQNVLSLLASGSGSGSKGIAPQLGKCNIAGWLLGNPECDPLLPVRSWSYIVETPNSENGICYPGDFIDYEELREQLSSVSSFERFEIFPKESSWPNHNTNGVTAACSHEGKSSFYRNLLWLTEKEGSYPKLKNSYVNKKGKEVLVLWGIHHPPNSKEQQNLYQNENAYVSVVTSNYNRRFTPEIAERPKVRDQAGRMNYYWTLLKPGDTIIFEANGNLIAPMYAFALSRGFGSGIITSHHHHHH
B3: STF2.HA1-2mutHis(PR8), produced in Baculovirus (protein)
chain: AQVINTNSLSLLTQNNLNKSQSALGTAIERLSSGLRINSAKDDAAGQAIANRFTANIKGLTQASRNANDGISIAQTTEGALNEINNNLQRVRELAVQSANSTNSQSDLDSIQAEITQRLNEIDRVSGQTQFNGVKVLAQDNTLTIQVGANDGETIDIDLKQINSQTLGLDSLNVQKAYDVKDTAVTTKAYANNGTTLDVSGLDDAAIKAATGGTNGTASVTGGAVKFDADNNKYFVTIGGFTGADAAKNGDYEVNVATDGTVTLAAGATKTTMPAGATTKTEVQELKDTPAVVSADAKNALIAGGVDATDANGAELVKMSYTDKNGKTIEGGYALKAGDKYYAADYDEATGAIKAKTTSYTAADGTTKTAANQLGGVDGKTEVVTIDGKTYNASKAAGHDFKAQPELAEAAAKTTENPLQKIDAALAQVDALRSDLGAVQNRFNSAITNLGNTVNNLSEARSRIEDSDYATEVSNMSRAQILQQAGTSVLAQANQVPQNVLSLLASGSGSGSKGAAPLQLGKCNIAGWLLGNPECDPLLPVRSWSDIAETPNSENGICYPGDFIDYEELREQLSSVSSFERFEIFPKESSWPNHNTNGVTAACSHEGKSSFYRNLLWLTEKEGSYPKLKNSYVNKKGKEVLVLWGIHHPPNSKEQQNLYQNENAYVSVVTSNYNRRFTPEIAERPKVRDQAGRMNYYWTLLKPGDTIIFEANGNLIAPMYAFALSRGFGSGIITSHHHHHH
B4: ngSTF2.HA1-2mutHis(PR8) (protein)
chain: B2 chain with N18Q, N100Q, N193Q, N215Q, N392Q, N456Q, N475Q, I515A, Y545D, V547A
B5: STF2.HA1-2(PR8), produced in E. coli (protein)
chain: MAQVINTNSLSLLTQNNLNKSQSALGTAIERLSSGLRINSAKDDAAGQAIANRFTANIKGLTQASRNANDGISIAQTTEGALNEINNNLQRVRELAVQSANSTNSQSDLDSIQAEITQRLNEIDRVSGQTQFNGVKVLAQDNTLTIQVGANDGETIDIDLKQINSQTLGLDSLNVQKAYDVKDTAVTTKAYANNGTTLDVSGLDDAAIKAATGGTNGTASVTGGAVKFDADNNKYFVTIGGFTGADAAKNGDYEVNVATDGTVTLAAGATKTTMPAGATTKTEVQELKDTPAVVSADAKNALIAGGVDATDANGAELVKMSYTDKNGKTIEGGYALKAGDKYYAADYDEATGAIKAKTTSYTAADGTTKTAANQLGGVDGKTEVVTIDGKTYNASKAAGHDFKAQPELAEAAAKTTENPLQKIDAALAQVDALRSDLGAVQNRFNSAITNLGNTVNNLSEARSRIEDSDYATEVSNMSRAQILQQAGTSVLAQANQVPQNVLSLLAKGIAPLQLGKCNIAGWLLGNPECDPLLPVRSWSYIVETPNSENGICYPGDFIDYEELREQLSSVSSFERFEIFPKESSWPNHNTNGVTAACSHEGKSSFYRNLLWLTEKEGSYPKLKNSYVNKKGKEVLVLWGIHHPPNSKEQQNLYQNENAYVSVVTSNYNRRFTPEIAERPKVRDQAGRMNYYWTLLKPGDTIIFEANGNLIAPMYAFALSRGFGSGIITS
B6: STF2.EIII+ (protein)
chain: MAQVINTNSLSLLTQNNLNKSQSALGTAIERLSSGLRINSAKDDAAGQAIANRFTANIKGLTQASRNANDGISIAQTTEGALNEINNNLQRVRELAVQSANSTNSQSDLDSIQAEITQRLNEIDRVSGQTQFNGVKVLAQDNTLTIQVGANDGETIDIDLKQINSQTLGLDSLNVQKAYDVKDTAVTTKAYANNGTTLDVSGLDDAAIKAATGGTNGTASVTGGAVKFDADNNKYFVTIGGFTGADAAKNGDYEVNVATDGTVTLAAGATKTTMPAGATTKTEVQELKDTPAVVSADAKNALIAGGVDATDANGAELVKMSYTDKNGKTIEGGYALKAGDKYYAADYDEATGAIKAKTTSYTAADGTTKTAANQLGGVDGKTEVVTIDGKTYNASKAAGHDFKAQPELAEAAAKTTENPLQKIDAALAQVDALRSDLGAVQNRFNSAITNLGNTVNNLSEARSRIEDSDYATEVSNMSRAQILQQAGTSVLAQANQVPQNVLSLLRKGNSKLEGQLEFPRTSMEKLQLKGTTYGVCSKAFKFLGTPADTGHGTVVLELQYTGTDGPCKVPISSVASLNDLTPVGRLVTVNPFVSVATANAKVLIELEPPFGDSYIVVGRGEQQINHHWHKSGSSIGK
B7: STF2.HA1-2(PR8)mut (protein)
chain: B5 chain with I509A, Y540D, V542A
B8: STF2.HA1-3(PR8), produced in E. coli (protein)
chain: MAQVINTNSLSLLTQNNLNKSQSALGTAIERLSSGLRINSAKDDAAGQAIANRFTANIKGLTQASRNANDGISIAQTTEGALNEINNNLQRVRELAVQSANSTNSQSDLDSIQAEITQRLNEIDRVSGQTQFNGVKVLAQDNTLTIQVGANDGETIDIDLKQINSQTLGLDSLNVQKAYDVKDTAVTTKAYANNGTTLDVSGLDDAAIKAATGGTNGTASVTGGAVKFDADNNKYFVTIGGFTGADAAKNGDYEVNVATDGTVTLAAGATKTTMPAGATTKTEVQELKDTPAVVSADAKNALIAGGVDATDANGAELVKMSYTDKNGKTIEGGYALKAGDKYYAADYDEATGAIKAKTTSYTAADGTTKTAANQLGGVDGKTEVVTIDGKTYNASKAAGHDFKAQPELAEAAAKTTENPLQKIDAALAQVDALRSDLGAVQNRFNSAITNLGNTVNNLSEARSRIEDSDYATEVSNMSRAQILQQAGTSVLAQANQVPQNVLSLLANSENGICYPGDFIDYEELREQLSSVSSFERFEIFPKESSWPNHNTNGVTAACSHEGKSSFYRNLLWLTEKEGSYPKLKNSYVNKKGKEVLVLWGIHHPPNSKEQQNLYQNENAYVSVVTSNYNRRFTPEIAERPKVRDQAGRMNYYWTLLKPGDTIIFEANGNLIAPMYAFALSRG

Molecular target: Toll-like Receptor 5 (UniProt O60602)
Assay: cell-based or functional assay

Binder	TLR5 activity (EC50, ng/ml); IL-8 secretion by HEK293 cells [ng/mL]	TLR activity (EC50, ng/ml); IL-8 secretion by HEK293 cells [ng/mL]	also measured
B1	0.2	–	–
B2	–	9	–
B3	–	900	–
B4	–	9	–
B5	0.15	–	–
B6	–	–	TLR-5 EC50 (batch 052); IL-8 secretion by HEK293 cells: > 5000 ng/mL; TLR-5 EC50 (batch 054); IL-8 secretion by HEK293 cells: 1200 ng/mL; TLR-5 EC50 (batch 057); IL-8 secretion by HEK293 cells: 198 ng/mL
B7	1.2	–	–
B8	1.2	–	–

Reference: patent publication US20070224205A1
